IntAct's records for PubMed 23478064

B1: Eukaryotic translation initiation factor 4 gamma 2 (Homo sapiens), P78344-1 (parent)
chain: MESAIAEGGASRFSASSGGGGSRGAPQHYPKTAGNSEFLGKTPGQNAQKWIPARSTRRDDNSAANNSANEKERHDAIFRKVRGILNKLTPEKFDKLCLELLNVGVESKLILKGVILLIVDKALEEPKYSSLYAQLCLRLAEDAPNFDGPAAEGQPGQKQSTTFRRLLISKLQDEFENRTRNVDVYDKRENPLLPEEEEQRAIAKIKMLGNIKFIGELGKLDLIHESILHKCIKTLLEKKKRVQLKDMGEDLECLCQIMRTVGPRLDHERAKSLMDQYFARMCSLMLSKELPARIRFLLQDTVELREHHWVPRKAFLDNGPKTINQIRQDAVKDLGVFIPAPMAQGMRSDFFLEGPFMPPRMKMDRDPLGGLADMFGQMPGSGIGTGPGVIQDRFSPTMGRHRSNQLFNGHGGHIMPPTQSQFGEMGGKFMKSQGLSQLYHNQSQGLLSQLQGQSKDMPPRFSKKGQLNADEISLRPAQSFLMNKNQVPKLQPQITMIPPSAQPPRTQTPPLGQTPQLGLKTNPPLIQEKPAKTSKKPPPSKEELLKLTETVVTEYLNSGNANEAVNGVREMRAPKHFLPEMLSKVIILSLDRSDEDKEKASSLISLLKQEGIATSDNFMQAFLNVLDQCPKLEVDIPLVKSYLAQFAARAIISELVSISELAQPLESGTHFPLFLLCLQQLAKLQDREWLTELFQQSKVNMQKMLPEIDQNKDRMLEILEGKGLSFLFPLLKLEKELLKQIKLDPSPQTIYKWIKDNISPKLHVDKGFVNILMTSFLQYISSEVNPPSDETDSSSAPSKEQLEQEKQLLLSFKPVMQKFLHDHVDLQVSALYALQVHCYNSNFPKGMLLRFFVHFYDMEIIEEEAFLAWKEDITQEFPGKGKALFQVNQWLTWLETAEEEESEEEAD

Variants of: B1
Conditions: with if4a1_human EIF4A1, P60842
Sequence of if4a1_human EIF4A1, P60842 (P60842 whole entry): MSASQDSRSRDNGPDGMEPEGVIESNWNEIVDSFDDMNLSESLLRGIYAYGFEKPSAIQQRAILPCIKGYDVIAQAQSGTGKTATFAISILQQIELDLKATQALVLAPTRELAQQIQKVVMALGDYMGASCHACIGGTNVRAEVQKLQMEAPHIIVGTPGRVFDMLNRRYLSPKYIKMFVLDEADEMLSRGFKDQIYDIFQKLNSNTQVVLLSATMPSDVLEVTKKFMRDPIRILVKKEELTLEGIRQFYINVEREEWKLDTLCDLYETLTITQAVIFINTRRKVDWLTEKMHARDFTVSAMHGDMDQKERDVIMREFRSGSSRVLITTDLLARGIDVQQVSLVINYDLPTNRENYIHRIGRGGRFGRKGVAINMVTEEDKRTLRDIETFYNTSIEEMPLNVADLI

Effect of a mutation on the interaction, disrupting interaction strength:
E125K
F296A
N86A
